Results taken from US7741096B2, “Crystal structure of hepatocyte growth factor activator complexed with Kunitz domain inhibitor” (Genentech, Inc., priority 2004, dated 2010).

How the values were obtained:
uPA = biological target: T1, uPA (Homo sapiens, UniProt P00749); experiment: Chromogenic substrate enzyme inhibition assay, uPA; assay type: biochemical; details: substrate S2444, read-out: KD1 IC50
T1 construct: purchased Chemicon
Text: (§1) The following synthetic substrates were used to measure enzyme activities: Spectrozyme® fvIIa (American Diagnostica, Stamford, Conn.) for HGFA and ChromozymtPA (Roche Molecular Biochemicals, Indianapolis, Ind.) for tissue factor/FVIIa. The following substrates were from Diapharma, Westchester, Ohio: S2222 for factor Xa, S2302 for plasma kallikrein, S2366 for activated protein C, thrombin, hepsin and plasmin, S2444 for uPA, S2288 for factor XIa, FXIIa and tPA, S2765 for matriptase complement factor C1s, chymotrypsin and trypsin. Except for bovine trypsin (Worthington, Lakewood, N.J.), all enzymes used were of human origin. Factor Xa, factor XIa, thrombin, activated protein C and plasmin were from Haematologic Technologies (Essex Junction, Vt.). […]
(§2) The inhibitory activity of KD1 towards a panel of trypsin-like serine proteases was examined using assay conditions as described for measuring the inhibitory activity of HAI-1B ectodomain. […] After 20 min. incubation at room temperature, the appropriate substrate was added and the linear rates of substrate hydrolysis were determined by measuring the change in absorbance at 405 nm on a kinetic microplate reader (Molecular Devices, Sunnyvale, Calif.). […]

Thrombin = biological target: T2, Thrombin (Homo sapiens, UniProt P00734); experiment: Chromogenic substrate enzyme inhibition assay, thrombin; assay type: biochemical; details: substrate S2366, read-out: KD1 IC50
T2 construct: purchased Haematologic Technologies
Text: as §1, §2

IC50 (uPA): > 1000 nM | IC50 (Thrombin): > 1000 nM
Substance: KD1: The first Kunitz domain of human HAI-1B, amino acids 246-303 (SEQ ID NO: 4), with polyhistidine leader, expressed in E. coli
